Source: patent US20200384081A1 (Janssen / Centocor, published 2020)
Positions count from the first letter of the chain named.

Columns and labels:
[1] = molecular target: IL-12 (mouse) (mouse) (UniProt P43432); assay: cell-based or functional assay; details: scale: fold more effective than the anti-p35 mAb
[2] = molecular target: T1, human p40 single mutant E45A (human, UniProt P29460 23-328); assay: capture assay, relative binding affinity of the mAb to p40 muteins (FIG. 4)
T1 construct: HEK293E supernatant
T1 sequence: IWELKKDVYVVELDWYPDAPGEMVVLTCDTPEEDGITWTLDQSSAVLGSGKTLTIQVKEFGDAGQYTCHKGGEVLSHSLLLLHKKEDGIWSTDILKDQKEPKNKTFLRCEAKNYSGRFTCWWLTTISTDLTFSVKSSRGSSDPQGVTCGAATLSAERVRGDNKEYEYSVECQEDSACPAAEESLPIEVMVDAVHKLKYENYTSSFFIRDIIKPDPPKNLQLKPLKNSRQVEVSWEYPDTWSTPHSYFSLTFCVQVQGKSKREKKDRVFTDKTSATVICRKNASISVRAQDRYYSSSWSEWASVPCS
Procedure: (§1) In brief, MSD high bind plates (Meso Scale Discovery, MD) were coated with 5 μl of a capture monoclonal antibody (5 μg/ml) at room temperature for 1 hour. […] One-hundred and fifty (150) μl of 5% MSD Blocker A buffer was added to each well and incubated for 1 hr at room temperature. Plates were washed three times with 0.1 M HEPES buffer (pH 7.4). These protein-charged ELISA plates were incubated with 25 μl of different transiently expressed p40 mutant supernatants (1:10 dilution with 0.1 M HEPES buffer, pH 7.4) for 1 hr at room temperature. The plates were washed three times with 0.1 M HEPES buffer (pH 7.4). Twenty-five (25) μ1 of different concentrations of MSD Sulfo-TAG labeled p40 mAb, ranging from 0 to 20 μg/ml, were dispensed to micro-wells. After incubation for 2 hrs shaking at room temperature, plates were washed 3 times with 0.1 M HEPES buffer (pH 7.4). One hundred and fifty (150) μ1 of diluted MSD Read Buffer T was dispensed into each well and the plates were analyzed with a SECTOR imager (MSD).

[3] = molecular target: T2, human p40 single mutant M23T (human, UniProt P29460 23-328); assay: as above
T2 construct: HEK293E supernatant
T2 sequence: T1 sequence with M23T, A45E
Procedure: as §1

[4] = molecular target: T3, human p40 single mutant L40T (human, UniProt P29460 23-328); assay: as above
T3 construct: HEK293E supernatant
T3 sequence: T1 sequence with L40T, A45E
Procedure: as §1

[5] = molecular target: T4, human p40 single mutant S43R (human, UniProt P29460 23-328); assay: as above
T4 construct: HEK293E supernatant
T4 sequence: T1 sequence with S43R, A45E
Procedure: as §1

Chain of IL-12 (mouse) (mouse) (P43432 23-335 limits assumed, chain 1 of 2): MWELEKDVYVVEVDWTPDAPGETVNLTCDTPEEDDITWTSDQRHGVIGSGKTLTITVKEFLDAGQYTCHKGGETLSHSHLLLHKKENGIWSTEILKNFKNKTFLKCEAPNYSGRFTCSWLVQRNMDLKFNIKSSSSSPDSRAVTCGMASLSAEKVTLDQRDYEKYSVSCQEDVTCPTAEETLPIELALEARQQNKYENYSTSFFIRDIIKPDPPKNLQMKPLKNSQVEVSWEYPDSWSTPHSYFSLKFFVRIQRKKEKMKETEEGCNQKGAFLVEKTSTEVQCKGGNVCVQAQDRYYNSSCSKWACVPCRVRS
Chain of IL-12 (mouse) (mouse) (P43431 23-215 limits assumed, chain 2 of 2, further chain): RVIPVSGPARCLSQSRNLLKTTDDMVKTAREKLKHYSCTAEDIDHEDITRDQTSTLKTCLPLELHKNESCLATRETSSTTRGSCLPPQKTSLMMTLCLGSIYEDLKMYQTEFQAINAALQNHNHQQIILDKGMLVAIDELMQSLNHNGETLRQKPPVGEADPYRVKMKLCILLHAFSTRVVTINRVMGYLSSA

Molecule “C17.8 (rat anti-mouse IL-12/IL-23p40, IgG2a) (antibody)” has a neutralizing IL-12 (in vitro neutralization studies) [1] of 5.

B1: IL-12/IL-23p40 mAb (antibody, V domains shown)
VH: EVQLVQSGAEVKKPGESLKISCKGSGYSFTTYWLGWVRQMPGKGLDWIGIMSPVDSDIRYSPSFQGQVTMSVDKSITTAYLQWNSLKASDTAMYYCARRRPGQGYFDFWGQGTLVTVSS
VL: DIQMTQSPSSLSASVGDRVTITCRASQGISSWLAWYQQKPEKAPKSLIYAASSLQSGVPSRFSGSGSGTDFTLTISSLQPEDFATYYCQQYNIYPYTFGQGTKLEIKR
notes: Fully human monoclonal IgG from a mammalian cell line, purified on protein A; also called IL-12/23p40 mAb; IL-12 p40 antibody
In the case of B1, the reduction of binding [2] is reported as roughly 70%, the reduction of binding [3] is reported as roughly 40% and the reduction of binding [4] is reported as roughly 40%. The reduction of binding [5] was roughly 40%.
